Numbering of substitutions follows the chain as printed.
Tests used:
[1] = test system: T1, PRIRTVGPGSRSASGKLTCLASYCWLFFTGIA
T1 sequence: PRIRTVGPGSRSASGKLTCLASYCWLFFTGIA

[2] = test system: T2, HLFGADWLGA RTAPG KLTCLASYCWLFWTGIA
T2 sequence: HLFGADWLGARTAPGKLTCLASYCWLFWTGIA

[3] = test system: T3, MQIRQAHQPR RSAPQ KLTCLASYCWLFWTGIA
T3 sequence: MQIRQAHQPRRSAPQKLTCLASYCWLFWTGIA

APGKLQCLASYCWLFWTGIA = test system: T4, APGKLQCLASYCWLFWTGIA
T4 sequence: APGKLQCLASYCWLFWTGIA

RRAPGKLQCLASYCWLFWTG = test system: T5, RRAPGKLQCLASYCWLFWTG
T5 sequence: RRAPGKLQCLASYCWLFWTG

[4] = test system: T6, PRIRTVGPGSRSASGKLTCVASYCWLFWTGIA
T6 sequence: T1 sequence with L20V, F28W

[5] = test system: T7, CGGSGGRRAPGKLQCLASYCWLFWTGIAC
T7 sequence: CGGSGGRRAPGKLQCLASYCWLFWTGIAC

RRAPGKLTCLASYcWLFWTGIA [6] = test system: T8, RRAPGKLTCLASYcWLFWTGIA
T8 sequence: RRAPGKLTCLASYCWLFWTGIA

[7] = test system: T9, AVDSLPLYGA RSAPS KLTCLASYCWLFWTGIA
T9 sequence: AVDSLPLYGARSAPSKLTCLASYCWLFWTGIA

[8] = test system: T10, SRSRTVSPGSRSASGKSTCLASYCWLFWTGIA
T10 sequence: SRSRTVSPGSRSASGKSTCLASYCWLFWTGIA

Orn-LTCLASYCWLF = test system: T11, Orn-LTCLASYCWLF
T11 sequence: XLTCLASYCWLF

[9] = test system: T12, RRAPGKLTCLASYCWL-MePhe-WTGIA
T12 sequence: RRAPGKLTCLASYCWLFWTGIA

compound 3 = test system: T13, compound 3
T13 sequence: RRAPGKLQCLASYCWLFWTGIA

RSTVSQMRCLASYCWLFPALVS = test system: T14, RSTVSQMRCLASYCWLFPALVS
T14 sequence: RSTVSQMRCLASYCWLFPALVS

[10] = test system: T15, RRAPGKLTCLASYCWLF QTGWA YWGYRQHPGS
T15 sequence: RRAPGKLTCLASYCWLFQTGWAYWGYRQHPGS

[11] = test system: T16, PRIRSVGPGSRSASGKLTCLASYCWLFWTGIA
T16 sequence: T1 sequence with T5S, F28W

[12] = test system: T17, aigtwflwcysalctlkgparr (retro-inverso)
T17 sequence: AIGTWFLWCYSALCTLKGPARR

[13] = test system: T18, CNPRGD-Tyr(OEt)-RC-PEG16-Lys(PEG2-Biotin)-PEG16-rRAPGKLTCLASYCWLFWTGIA
T18 sequence: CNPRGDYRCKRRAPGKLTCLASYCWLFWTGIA

[14] = test system: T19, WRAGLDESQR DRAPG KLTCLASYCWLFWTGIA
T19 sequence: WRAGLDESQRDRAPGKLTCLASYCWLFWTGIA

rRASGKLTCLASYCWLFWTGIA = test system: T20, rRASGKLTCLASYCWLFWTGIA
T20 sequence: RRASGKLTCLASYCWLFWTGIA

RRApGKLTCLASYCWLFWTGIA [15] = test system: T21, RRApGKLTCLASYCWLFWTGIA
T21 sequence: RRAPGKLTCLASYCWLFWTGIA

CRRAPGKLQCLASYCWLFWTGIAC = test system: T22, CRRAPGKLQCLASYCWLFWTGIAC
T22 sequence: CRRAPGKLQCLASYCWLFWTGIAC

(PEG)27-KLTCLASYCWLF = test system: T23, (PEG)27-KLTCLASYCWLF
T23 sequence: KLTCLASYCWLF

RAAPGKLQCLASYCWLFWTGIA = test system: T24, RAAPGKLQCLASYCWLFWTGIA
T24 sequence: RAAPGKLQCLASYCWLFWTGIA

KLtCLASYCWLF [16] = test system: T25, KLtCLASYCWLF
T25 sequence: KLTCLASYCWLF

[17] = test system: T26, SKQGRPISPDrRAAGKLTCLASYCWLFW
T26 sequence: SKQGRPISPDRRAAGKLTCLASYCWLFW

KLACLASYCWLF = test system: T27, KLACLASYCWLF
T27 sequence: KLACLASYCWLF

KLTALASYAWLF = test system: T28, KLTALASYAWLF
T28 sequence: KLTALASYAWLF

KLT-HCy-LASYCWLF = test system: T29, KLT-HCy-LASYCWLF
T29 sequence: KLTXLASYCWLF

K-MeLeu-TCLASYCWLF = test system: T30, K-MeLeu-TCLASYCWLF
T30 sequence: KLTCLASYCWLF

[18] = test system: T31, RRAPGKCTALASYAWCFWTGIA-CONH2
T31 sequence: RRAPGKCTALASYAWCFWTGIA

[19] = test system: T32, SKQGRPISPDrRAAGKLTCLASYCWLFWTGI
T32 sequence: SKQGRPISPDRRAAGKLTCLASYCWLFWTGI

KLTCLASYCWLf [20] = test system: T33, KLTCLASYCWLf
T33 sequence: KLTCLASYCWLF

[21] = test system: T34, RRAPGKLQCLASYCWLFWTGIAAAAGAP
T34 sequence: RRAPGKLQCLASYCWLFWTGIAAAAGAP

[22] = test system: T35, RRAPGKLTCLASYCWLF WTGIA RWPSHRSGPS
T35 sequence: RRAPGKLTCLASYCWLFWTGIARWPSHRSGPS

[23] = test system: T36, RRAPGKLCALASYCWLFWTGIA-CONH2
T36 sequence: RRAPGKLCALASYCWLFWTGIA

RRAPGKLQCLASYCWLFWT = test system: T37, RRAPGKLQCLASYCWLFWT
T37 sequence: RRAPGKLQCLASYCWLFWT

KLT-Glu-LASY-Dab-WLF = test system: T38, KLT-Glu-LASY-Dab-WLF
T38 sequence: KLTELASYXWLF

[24] = test system: T39, PQTRDPSSRD RRAPG KLTCLASYCWLFWTGIA
T39 sequence: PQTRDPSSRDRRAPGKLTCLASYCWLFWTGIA

[25] = test system: T40, SKQGRPISPDrRAAGKLTCLASYCW-NMeLeu-FWTGIA
T40 sequence: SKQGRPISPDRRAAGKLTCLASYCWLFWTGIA

[26] = test system: T41, SKQGRPIAPDrRAAGKLTCLASYCWLFWTGIA
T41 sequence: T40 sequence with S8A

[27] = test system: T42, RRAPGKLTCLASYAWCFWTGIA-COOH
T42 sequence: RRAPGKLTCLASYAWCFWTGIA

[28] = test system: T43, RRAPGKLT-Asp-LASY-Lys-WLFWTGIA-COOH
T43 sequence: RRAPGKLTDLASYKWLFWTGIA

[29] = test system: T44, GSVRRALFVA ARAPA KLTCLASYCWLFWTGIA
T44 sequence: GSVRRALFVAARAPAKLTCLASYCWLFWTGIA

KLQCLASYCWLFWTGIA = test system: T45, KLQCLASYCWLFWTGIA
T45 sequence: KLQCLASYCWLFWTGIA

[30] = test system: T46, PRIRTVGPGSRSASGKLTCLASYCWLAWTGIA
T46 sequence: T1 sequence with F27A, F28W

**Q.** Which results are given for human Factor IXa?
**A.** Vmax, FXa generation assay [1]: > 3; Vmax, FXa generation assay; (++) means 1-2 [2]: (++); Vmax, FXa generation assay [3]: > 2; Vmax, FXa generation assay; (++) means 1-2 (APGKLQCLASYCWLFWTGIA): (++); Vmax, FXa generation assay (RRAPGKLQCLASYCWLFWTG): > 2; Vmax, FXa generation assay [4]: > 2; Vmax, FXa generation assay; (++) means 1-2 [5]: (++); Vmax, FXa generation assay; (++) means 1-2 (RRAPGKLTCLASYcWLFWTGIA [6]): (++); Vmax, FXa generation assay; (++) means 1-2 [7]: (++); Vmax, FXa generation assay [8]: > 3; Vmax, FXa generation assay; (++) means 1-2 (Orn-LTCLASYCWLF): (++); Vmax, FXa generation assay [9]: > 2; KM (nM) of hFIXa for FX (compound 3): 16 nM; Vmax (mOD/min min), with phospholipids (compound 3): 3.9 mOD/min min; Vmax (mOD/min min), without phospholipids (compound 3): 2.77 mOD/min min; Vmax, FXa generation assay with hFIXa (compound 3): > 3; kcat (min^-1) of hFIXa for FX, compound at 1 µM (compound 3): 0.0177 min⁻¹; Δ KM (Km compound/Km buffer) (compound 3): 0.21; Vmax, FXa generation assay; (++) means 1-2 (RSTVSQMRCLASYCWLFPALVS): (++); Vmax, FXa generation assay [10]: > 2; Vmax, FXa generation assay [11]: > 3; Vmax, FXa generation assay [12]: > 2; Vmax, FXa generation assay [13]: > 3; Vmax, FXa generation assay; (++) means 1-2 [14]: (++); Vmax, FXa generation assay; (++) means 1-2 (rRASGKLTCLASYCWLFWTGIA): (++); Vmax, FXa generation assay; (++) means 1-2 (RRApGKLTCLASYCWLFWTGIA [15]): (++); Vmax, FXa generation assay (CRRAPGKLQCLASYCWLFWTGIAC): > 2; Vmax, FXa generation assay ((PEG)27-KLTCLASYCWLF): > 2; Vmax, FXa generation assay (RAAPGKLQCLASYCWLFWTGIA): > 2; Vmax, FXa generation assay (KLtCLASYCWLF [16]): > 2; Vmax, FXa generation assay [17]: > 3; Vmax, FXa generation assay (KLACLASYCWLF): > 2; Vmax, FXa generation assay (KLTALASYAWLF): > 2; Vmax, FXa generation assay (KLT-HCy-LASYCWLF): > 2; Vmax, FXa generation assay (K-MeLeu-TCLASYCWLF): > 2; Vmax, FXa generation assay; (++) means 1-2 [18]: (++); Vmax, FXa generation assay [19]: > 3; Vmax, FXa generation assay (KLTCLASYCWLf [20]): > 3; Vmax, FXa generation assay; (++) means 1-2 [21]: (++); Vmax, FXa generation assay; (++) means 1-2 [22]: (++); Vmax, FXa generation assay [23]: > 2; Vmax, FXa generation assay (RRAPGKLQCLASYCWLFWT): > 2; Vmax, FXa generation assay; (++) means 1-2 (KLT-Glu-LASY-Dab-WLF): (++); Vmax, FXa generation assay [24]: > 3; Vmax, FXa generation assay [25]: > 1.9; Vmax, FXa generation assay [26]: > 3; Vmax, FXa generation assay [27]: > 2; Vmax, FXa generation assay; (++) means 1-2 [28]: (++); Vmax, FXa generation assay [29]: > 2; Vmax, FXa generation assay (KLQCLASYCWLFWTGIA): > 2; Vmax, FXa generation assay [30]: > 3
